In patent US20070087986A1, “Compositions and methods for enhancing immunity by chemoattractant adjuvants” (priority 2004, published 2007):
Non-standard residues stand in square brackets, D forms with d. No end group written: not given here.

Assays:
[1] = test system: Female BALB/C mice; type: in vivo; settings: for levels of antigen specific IgA antibodies: mucosal samples, day 21, intranasal rPA plus adjuvant; for levels of antigen specific IgG antibodies: serum, day 21, intranasal rPA 10 μg plus adjuvant, vs rPA alone
[2] = target: T1, FPRL1 (Homo sapiens, UniProt P25090); assay: FPRL1 activity of SHAAGtide and truncated and other variants; settings: in words: high, moderate, low
T1 sequence (P25090 1-351): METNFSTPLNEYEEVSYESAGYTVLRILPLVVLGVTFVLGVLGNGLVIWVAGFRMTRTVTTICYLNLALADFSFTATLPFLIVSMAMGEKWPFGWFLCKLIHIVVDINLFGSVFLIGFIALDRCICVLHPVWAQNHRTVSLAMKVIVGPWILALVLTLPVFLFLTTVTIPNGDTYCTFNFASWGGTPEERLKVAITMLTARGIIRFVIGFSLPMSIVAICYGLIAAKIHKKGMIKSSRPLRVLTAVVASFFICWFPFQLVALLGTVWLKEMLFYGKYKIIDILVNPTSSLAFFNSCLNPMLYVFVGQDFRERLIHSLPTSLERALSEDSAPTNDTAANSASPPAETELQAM
Excerpt: In addition to the agonists and antagonists shown in TABLE 4, SHAAGtide polypeptides were also shown to modulate FPRL1 activity. The term “SHAAGtide” includes SHAAGtide polypeptides (shown in TABLE 5), including isolated or purified SHAAGtide polypeptides, proteins or biologically active fragments separated from or recovered from a component of its natural environment; and polynucleotides shown in TABLE 6, truncated variants and other variants thereof, including naturally occurring allelic variants, derivatives and analogs. SHAAGtide polypeptides are derived from the alternatively spliced variant of CKβ8, namely CKβ8-1. CKβ8-1 is a 116 amino acid long polypeptide that includes the sequence of SHAAGtide polypeptides. […]

Molecule | levels of antigen specific IgA antibodies [1] | levels of antigen specific IgG antibodies [1] | FPRL1 Activity [2]
5′-TCCATGACGTTCCTGATGCT-3′ (chemistry not given here) [CpG, CpG oligonucleotide, ligand for TLR9, reference compound] | did not induce significant levels | did not induce significant levels | –
IGPQMTLSHAAG [CCXP4] | – | – | Low
LWRRKIGPQMTLSH [CCXP11] | – | – | Moderate
MLWRRKIGPQM [CCXP8] | – | – | Moderate
MLWRRKIGPQMT [CCXP5] | – | – | Moderate
MLWRRKIGPQMTLSH [CCXP3] | – | – | High
MLWRRKIGPQMTLSHAAG [CCXP1] | did not induce significant levels | did not induce significant levels | sequence high
MLWRRKIGPQMTLSHAAY [CCXP6] | – | – | high
RRKIGPQMTLSHAAG [CCXP2] | – | – | Low
Trp-Lys-Tyr-Met-Val-D-Met-CONH2 (WKYMV[dM]-NH2) [W-tide, WKYMV-(d-Met)-CONH2, synthetic hexapeptide ligand of FPRL1, reference compound] | did not induce significant levels | did not induce significant levels | –
WRRKIG [CCXP10] | – | – | Low activity
WRRKIGPQM [CCXP9] | – | – | Low activity
WRRKIGPQMTLSHAAG [CCXP7] | – | – | Low activity
mJE: chemokine mJE (SEQ ID NO: 60), used as chemoattractant adjuvant | did not induce significant levels | did not induce significant levels | –
mC5a: chemoattractant mC5a (SEQ ID NO: 62) (protein, listed as Homo sapiens) NLHLLRQKIEEQAAKYKHSVPKKCCYDGARVNFYETCEERVARVTIGPLCIRAFNECCTIANKIRKESPHKPVQLGR | did not induce significant levels | did not induce significant levels | –
